Measurements from patent US20250019439A1 (Adimab, published 2025).

What was measured:
ADI-22523 Fab = molecular target: T1, ADI-22523 Fab; test: BLI; tip anti-ID IgG, solution ADI-22523 Fab
T1 construct: anti-CD3 Fab by papain digestion of the IgG
Procedure: (§1) ForteBio affinity measurements were performed generally as previously described (Estep et al., MAbs. 2013 5(2):270-8). Briefly, ForteBio affinity measurements were performed by loading antibody IgG or Fabs on-line onto AHC sensors. Sensors were equilibrated off-line in assay buffer for 30 minutes and then monitored on-line for 60 seconds for baseline establishment. For avid binding measurement, sensors with loaded antibodies were exposed to IgG or Fab solutions for 3 minutes, afterwards they were transferred to assay buffer for 3 minutes for off-rate measurement. Kinetics data were fit using a 1:1 binding model in the data analysis software provided by ForteBio to obtain equilibrium dissociation constant (KD=koff/kₒₙ) values. In each column, tip-immobilized antibodies are listed first and solution antibodies second.

ADI-26916 IgG = molecular target: T2, ADI-26916 IgG; test: SPR Carterra avidity, yeast anti-ID
T2 construct: anti-CD3 IgG
T2 sequence (VH, as listed by the source, chain 1 of 2): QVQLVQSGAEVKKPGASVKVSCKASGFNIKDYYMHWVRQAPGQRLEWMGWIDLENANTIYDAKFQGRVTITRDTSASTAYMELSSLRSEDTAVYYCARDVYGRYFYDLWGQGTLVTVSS
T2 sequence (VL, as listed by the source, chain 2 of 2): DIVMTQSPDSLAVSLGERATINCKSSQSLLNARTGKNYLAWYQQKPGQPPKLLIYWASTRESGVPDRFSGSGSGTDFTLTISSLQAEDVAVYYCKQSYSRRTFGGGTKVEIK
Procedure: (§2) Kinetic analysis was conducted at 25° C. in an HBSTE running buffer system (Carterra Cat #3630) using a Carterra LSA (Carterra USA, Salt Lake City, UT). The sample compartment was maintained at 20° C. for the duration of each experiment.
(§3) For antibody capture experiments, a goat anti-human Fc antibody (Jackson ImmunoResearch) was covalently coupled to an HC30M sensor chip surface via standard amine coupling (1:1 EDC:NHS) and then blocked with ethanolamine (1.0 M, pH 8.5). Covalent coupling steps were performed in 25 mM MES buffer (Carterra, Cat #3625) plus 0.05% Tween20. The anti-CD3 antibodies (100 nM in running buffer) were flowed over discrete regions of interest on the chip surface for 5 minutes. […] Dissociation of the anti-idiotype antibodies was monitored for 300s. Several blank buffer samples were injected over the entire chip surface at the start of each non-regenerative kinetic cycle. The preceding blank buffer injection was used for blank surface subtraction. At the end of each non-regenerative kinetic cycle, all surfaces were regenerated via two 30s injections of 10 mM glycine, pH 1.7.
(§4) For data processing and fitting, sensorgrams were double reference subtracted with a baseline drift correction of 4 RU. Sensorgrams were y-aligned and baseline corrected, filtered and cropped to include only the association and dissociation steps. Data was fitted to a 1:1 binding model using Carterra Kinetics Data Analysis software version 1.7.1.3055.

ADI-70326 = molecular target: T3, ADI-70326; test: SPR Carterra avidity, yeast anti-ID
T3 construct: anti-CD3 antibody made in CHO cells, captured by anti-human Fc
Procedure: as §2, §3, §4

ADI-74968 = molecular target: T4, ADI-74968; test: SPR Carterra avidity, yeast anti-ID
T4 construct: pH-dependent anti-CD3 antibody made in CHO cells
Procedure: as §2, §3, §4

ADI-76362 = molecular target: T5, ADI-76362; test: SPR Carterra avidity, yeast anti-ID
T5 construct: anti-CD3 antibody made in CHO cells, captured by anti-human Fc
T5 sequence (VH, as listed by the source, chain 1 of 2): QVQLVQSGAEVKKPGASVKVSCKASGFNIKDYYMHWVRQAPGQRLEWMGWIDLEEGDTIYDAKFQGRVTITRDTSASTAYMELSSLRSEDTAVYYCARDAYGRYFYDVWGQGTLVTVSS
T5 sequence (VL, as listed by the source, chain 2 of 2): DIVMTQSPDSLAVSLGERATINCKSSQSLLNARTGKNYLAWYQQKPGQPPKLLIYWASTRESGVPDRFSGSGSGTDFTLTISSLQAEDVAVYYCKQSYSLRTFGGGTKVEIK
Procedure: as §2, §3, §4

ADI-76358 = molecular target: T6, ADI-76358; test: SPR Carterra avidity, yeast anti-ID
T6 construct: anti-CD3 antibody made in CHO cells, captured by anti-human Fc
T6 sequence (VH, as listed by the source, chain 1 of 2): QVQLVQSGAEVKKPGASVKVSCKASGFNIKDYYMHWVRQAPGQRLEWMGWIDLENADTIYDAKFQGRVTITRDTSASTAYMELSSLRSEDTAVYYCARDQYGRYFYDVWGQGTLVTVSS
Procedure: as §2, §3, §4

ADI-26921 IgG = molecular target: T7, ADI-26921 IgG; test: SPR Carterra avidity, yeast anti-ID
T7 construct: anti-CD3 IgG
T7 sequence (VH, as listed by the source limits assumed, chain 1 of 2): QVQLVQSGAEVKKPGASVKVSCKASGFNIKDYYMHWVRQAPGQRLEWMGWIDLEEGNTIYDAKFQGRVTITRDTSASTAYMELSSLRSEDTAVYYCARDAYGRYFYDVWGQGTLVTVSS
Procedure: as §2, §3, §4

ADI-48592 = molecular target: T8, ADI-48592; test: SPR Carterra avidity, yeast anti-ID
T8 construct: pH-dependent anti-CD3 antibody made in CHO cells
T8 sequence (VH, as listed by the source, chain 1 of 2): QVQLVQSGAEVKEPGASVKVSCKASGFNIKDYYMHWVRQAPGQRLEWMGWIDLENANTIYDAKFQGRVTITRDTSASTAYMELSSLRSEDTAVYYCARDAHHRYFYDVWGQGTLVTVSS
T8 sequence (VL, as listed by the source, chain 2 of 2): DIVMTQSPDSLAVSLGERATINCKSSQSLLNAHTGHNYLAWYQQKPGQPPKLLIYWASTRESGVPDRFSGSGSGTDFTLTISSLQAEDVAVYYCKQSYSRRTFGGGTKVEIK
Procedure: as §2, §3, §4

ADI-26915 = molecular target: T9, ADI-26915; test: SPR Carterra avidity, yeast anti-ID
T9 construct: anti-CD3 antibody made in CHO cells, captured by anti-human Fc
T9 sequence (VH, as listed by the source, chain 1 of 2): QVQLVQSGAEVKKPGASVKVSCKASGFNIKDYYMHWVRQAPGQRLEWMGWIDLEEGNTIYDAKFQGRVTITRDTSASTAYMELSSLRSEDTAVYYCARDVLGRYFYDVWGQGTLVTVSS
Procedure: as §2, §3, §4

ADI-48650 = molecular target: T10, ADI-48650; test: SPR Carterra avidity, yeast anti-ID
T10 construct: pH-dependent anti-CD3 antibody made in CHO cells
T10 sequence (VH, as listed by the source, chain 1 of 2): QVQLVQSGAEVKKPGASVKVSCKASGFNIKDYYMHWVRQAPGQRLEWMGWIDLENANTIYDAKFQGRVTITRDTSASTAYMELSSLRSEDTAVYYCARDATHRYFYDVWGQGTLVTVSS
T10 sequence (VL, as listed by the source, chain 2 of 2): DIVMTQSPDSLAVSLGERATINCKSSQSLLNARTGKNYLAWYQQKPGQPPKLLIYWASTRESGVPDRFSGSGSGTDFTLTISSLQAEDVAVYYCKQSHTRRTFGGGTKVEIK
Procedure: as §2, §3, §4

ADI-70330 = molecular target: T11, ADI-70330; test: SPR Carterra avidity, yeast anti-ID
T11 construct: anti-CD3 antibody made in CHO cells, captured by anti-human Fc
T11 sequence (VH, as listed by the source limits assumed, chain 1 of 2): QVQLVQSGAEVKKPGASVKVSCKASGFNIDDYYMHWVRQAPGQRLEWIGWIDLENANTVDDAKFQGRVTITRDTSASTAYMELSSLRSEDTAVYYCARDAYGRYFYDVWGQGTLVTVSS
T11 sequence (VL, as listed by the source limits assumed, chain 2 of 2): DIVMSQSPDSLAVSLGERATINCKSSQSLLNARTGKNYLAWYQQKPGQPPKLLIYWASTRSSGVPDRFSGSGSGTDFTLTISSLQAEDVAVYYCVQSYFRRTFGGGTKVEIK
Procedure: as §2, §3, §4

ADI-67447 = molecular target: T12, ADI-67447; test: SPR Carterra avidity, yeast anti-ID
T12 construct: anti-CD3 antibody made in CHO cells, captured by anti-human Fc
Procedure: as §2, §3, §4

ADI-26906 IgG = molecular target: T13, ADI-26906 IgG; test: SPR Carterra avidity, yeast anti-ID
T13 construct: anti-CD3 IgG
Procedure: as §2, §3, §4

ADI-76360 = molecular target: T14, ADI-76360; test: SPR Carterra avidity, yeast anti-ID
T14 construct: anti-CD3 antibody made in CHO cells, captured by anti-human Fc
Procedure: as §2, §3, §4

ADI-67445 = molecular target: T15, ADI-67445; test: SPR Carterra avidity, yeast anti-ID
T15 construct: anti-CD3 antibody made in CHO cells, captured by anti-human Fc
T15 sequence (VH, as listed by the source limits assumed, chain 1 of 2): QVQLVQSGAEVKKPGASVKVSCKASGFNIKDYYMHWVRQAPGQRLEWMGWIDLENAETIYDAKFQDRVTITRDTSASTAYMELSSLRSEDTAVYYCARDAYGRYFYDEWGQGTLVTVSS
Procedure: as §2, §3, §4

ADI-67450 = molecular target: T16, ADI-67450; test: SPR Carterra avidity, yeast anti-ID
T16 construct: anti-CD3 antibody made in CHO cells, captured by anti-human Fc
Procedure: as §2, §3, §4

CTL-62223 = molecular target: T17, CTL-62223; test: SPR Carterra avidity, yeast anti-ID
T17 construct: also called mosunetuzumab
Procedure: as §2, §3, §4

ADI-26913 IgG = molecular target: T18, ADI-26913 IgG; test: SPR Carterra avidity, yeast anti-ID
T18 construct: anti-CD3 IgG
Procedure: as §2, §3, §4

ADI-76361 = molecular target: T19, ADI-76361; test: SPR Carterra avidity, yeast anti-ID
T19 construct: anti-CD3 antibody made in CHO cells, captured by anti-human Fc
T19 sequence (VH, as listed by the source, chain 1 of 2): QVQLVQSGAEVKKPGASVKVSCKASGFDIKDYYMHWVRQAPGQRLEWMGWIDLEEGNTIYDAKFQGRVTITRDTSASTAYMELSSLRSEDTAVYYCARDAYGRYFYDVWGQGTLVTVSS
Procedure: as §2, §3, §4

ADI-26909 = molecular target: T20, ADI-26909; test: SPR Carterra avidity, yeast anti-ID
T20 construct: anti-CD3 antibody made in CHO cells, captured by anti-human Fc
T20 sequence (VH, as listed by the source limits assumed, chain 1 of 2): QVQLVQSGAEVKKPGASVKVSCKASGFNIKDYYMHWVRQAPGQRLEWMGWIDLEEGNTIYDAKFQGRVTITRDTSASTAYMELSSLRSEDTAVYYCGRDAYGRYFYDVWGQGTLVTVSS
Procedure: as §2, §3, §4

ADI-26912 = molecular target: T21, ADI-26912; test: SPR Carterra avidity, yeast anti-ID
T21 construct: anti-CD3 antibody made in CHO cells, captured by anti-human Fc
T21 sequence (VH, as listed by the source, chain 1 of 2): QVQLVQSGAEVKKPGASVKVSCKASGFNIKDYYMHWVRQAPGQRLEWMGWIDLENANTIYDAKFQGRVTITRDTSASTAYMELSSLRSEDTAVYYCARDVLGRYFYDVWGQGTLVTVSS
Procedure: as §2, §3, §4

ADI-70327 = molecular target: T22, ADI-70327; test: SPR Carterra avidity, yeast anti-ID
T22 construct: anti-CD3 antibody made in CHO cells, captured by anti-human Fc
Procedure: as §2, §3, §4

ADI-76357 = molecular target: T23, ADI-76357; test: SPR Carterra avidity, yeast anti-ID
T23 construct: anti-CD3 antibody made in CHO cells, captured by anti-human Fc
T23 sequence (VH, as listed by the source, chain 1 of 2): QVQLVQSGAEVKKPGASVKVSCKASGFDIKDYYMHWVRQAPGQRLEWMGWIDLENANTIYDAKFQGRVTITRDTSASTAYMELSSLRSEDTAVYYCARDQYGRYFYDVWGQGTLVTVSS
Procedure: as §2, §3, §4

ADI-74966 = molecular target: T24, ADI-74966; test: SPR Carterra avidity, yeast anti-ID
T24 construct: pH-dependent anti-CD3 antibody made in CHO cells
Procedure: as §2, §3, §4

ADI-74965 = molecular target: T25, ADI-74965; test: SPR Carterra avidity, yeast anti-ID
T25 construct: pH-dependent anti-CD3 antibody made in CHO cells
Procedure: as §2, §3, §4

ADI-48587 = molecular target: T26, ADI-48587; test: SPR Carterra avidity, yeast anti-ID
T26 construct: pH-dependent anti-CD3 antibody made in CHO cells
Procedure: as §2, §3, §4

ADI-50024 = molecular target: T27, ADI-50024; test: SPR Carterra avidity, yeast anti-ID
T27 construct: anti-CD3 antibody made in CHO cells, captured by anti-human Fc
T27 sequence (VH, as listed by the source limits assumed, chain 1 of 2): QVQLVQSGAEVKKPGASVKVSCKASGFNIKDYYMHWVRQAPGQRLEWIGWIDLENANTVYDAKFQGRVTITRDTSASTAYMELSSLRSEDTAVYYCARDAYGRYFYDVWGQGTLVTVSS
Procedure: as §2, §3, §4

ADI-22523 IgG = molecular target: T28, ADI-22523 IgG; test: BLI; tip anti-ID IgG, solution ADI-22523 IgG
T28 construct: anti-CD3 IgG
Procedure: as §1

CTL-62227 = molecular target: T29, CTL-62227; test: SPR Carterra, yeast anti-ID
T29 construct: also called odronextamab
Procedure: as §2, §3, §4

CTL-62228 = molecular target: T30, CTL-62228; test: SPR Carterra, yeast anti-ID
T30 construct: also called glofitamab
Procedure: as §2, §3, §4

ADI-48576 = molecular target: T31, ADI-48576; test: SPR Carterra, yeast anti-ID
T31 construct: pH-dependent anti-CD3 antibody made in CHO cells
T31 sequence (VH, as listed by the source, chain 1 of 2): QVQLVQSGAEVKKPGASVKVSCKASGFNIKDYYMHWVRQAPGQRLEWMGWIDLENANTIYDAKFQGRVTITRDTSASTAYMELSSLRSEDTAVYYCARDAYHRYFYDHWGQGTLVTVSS
T31 sequence (VL, as listed by the source, chain 2 of 2): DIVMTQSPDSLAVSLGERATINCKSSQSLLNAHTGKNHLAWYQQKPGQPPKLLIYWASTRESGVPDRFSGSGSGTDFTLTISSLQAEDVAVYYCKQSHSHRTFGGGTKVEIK
Procedure: as §2, §3, §4

CTL-62240 = molecular target: T32, CTL-62240; test: SPR Carterra, yeast anti-ID
T32 construct: also called ONO-4685
T32 sequence (VH, as listed by the source, chain 1 of 2): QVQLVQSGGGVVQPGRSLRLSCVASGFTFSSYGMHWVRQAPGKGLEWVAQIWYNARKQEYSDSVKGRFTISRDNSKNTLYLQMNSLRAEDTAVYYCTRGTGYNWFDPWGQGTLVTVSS
T32 sequence (VL, as listed by the source, chain 2 of 2): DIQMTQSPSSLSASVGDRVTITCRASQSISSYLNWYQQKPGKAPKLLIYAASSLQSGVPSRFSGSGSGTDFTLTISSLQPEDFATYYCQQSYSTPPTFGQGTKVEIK
Procedure: as §2, §3, §4

ADI-26919 = molecular target: T33, ADI-26919; test: SPR Carterra avidity, yeast anti-ID, *koff limit
T33 construct: anti-CD3 antibody made in CHO cells, captured by anti-human Fc
Procedure: as §2, §3, §4

ADI-26924 = molecular target: T34, ADI-26924; test: SPR Carterra avidity, yeast anti-ID, *koff limit
T34 construct: anti-CD3 antibody made in CHO cells, captured by anti-human Fc
Procedure: as §2, §3, §4

ADI-74967 = molecular target: T35, ADI-74967; test: SPR Carterra avidity, yeast anti-ID, *koff limit
T35 construct: pH-dependent anti-CD3 antibody made in CHO cells
Procedure: as §2, §3, §4

ADI-26943 = molecular target: T36, ADI-26943; test: SPR Carterra avidity, yeast anti-ID, *koff limit
T36 construct: anti-CD3 antibody made in CHO cells, captured by anti-human Fc
T36 sequence (VH, as listed by the source, chain 1 of 2): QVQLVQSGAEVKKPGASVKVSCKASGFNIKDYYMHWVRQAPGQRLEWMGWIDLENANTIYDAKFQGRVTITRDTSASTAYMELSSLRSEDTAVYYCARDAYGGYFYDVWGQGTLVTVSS
T36 sequence (VL, as listed by the source, chain 2 of 2): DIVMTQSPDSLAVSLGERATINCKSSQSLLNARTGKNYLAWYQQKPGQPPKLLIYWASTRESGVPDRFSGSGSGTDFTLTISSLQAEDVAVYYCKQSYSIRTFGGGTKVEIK
Procedure: as §2, §3, §4

ADI-76359 = molecular target: T37, ADI-76359; test: SPR Carterra avidity, yeast anti-ID, *koff limit
T37 construct: anti-CD3 antibody made in CHO cells, captured by anti-human Fc
Procedure: as §2, §3, §4

ADI-26920 IgG = molecular target: T38, ADI-26920 IgG; test: SPR Carterra avidity, yeast anti-ID, *koff limit
T38 construct: anti-CD3 IgG
T38 sequence (VH, as listed by the source limits assumed, chain 1 of 2): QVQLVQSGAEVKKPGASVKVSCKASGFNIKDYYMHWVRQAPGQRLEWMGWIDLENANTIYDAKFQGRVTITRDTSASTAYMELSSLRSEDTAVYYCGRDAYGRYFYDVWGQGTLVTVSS
Procedure: as §2, §3, §4

B1: ADI-30242 (antibody, V domains shown)
VH: QVQLVQSGAEVKKPGSSVKVSCKASGGTFSSYAISWVRQAPGQGLEWMGGIIPIFGTANYAQKFQGRVTITADESTSTAYMELSSLRSEDTAVYYCARGAPNYYGSGGYDDGWFDPWGQGTLVTVSS
VL: EIVLTQSPGTLSLSPGERATLSCRASQSVSSSYLAWYQQKPGQAPRLLIYGASSRATGIPDRFSGSGSGTDFTLTISRLEPEDFAVYYCQQFGRDPTFGGGTKVEIK
notes: anti-ID IgG
- Kd (ADI-22523 Fab): 37.4 nM
- Kd (ADI-26916 IgG): 35 nM
- Kd (ADI-70326): 45 nM
- Kd (ADI-74968): 36 nM
- Kd (ADI-76362): 27 nM
- Kd (ADI-76358): 42 nM
- Kd (ADI-26921 IgG): 21 nM
- binding result (ADI-48592): binds
- Kd (ADI-26915): 56 nM
- Kd (ADI-48650): 44 nM
- Kd (ADI-70330): 40 nM
- Kd (ADI-67447): 8.4 nM
- Kd (ADI-26906 IgG): 5.9 nM
- Kd (ADI-76360): 11 nM
- Kd (ADI-67445): 11 nM
- Kd (ADI-67450): 56 nM
- Kd (CTL-62223): 31 nM
- Kd (ADI-26913 IgG): 24 nM
- Kd (ADI-76361): 15 nM
- Kd (ADI-26909): 17 nM
- Kd (ADI-26912): 33 nM
- Kd (ADI-70327): 45 nM
- Kd (ADI-76357): 22 nM
- Kd (ADI-74966): 25 nM
- Kd (ADI-74965): 45 nM
- Kd (ADI-48587): 43 nM
- Kd (ADI-50024): 11 nM
- Kd (ADI-22523 IgG): 0.57 nM
- binding result (CTL-62227): no binding (tested: up to 200 nM)
- binding result (CTL-62228): no binding (tested: up to 200 nM)
- binding result (ADI-48576): no binding (tested: up to 200 nM)
- binding result (CTL-62240): no binding (tested: up to 200 nM)
- Kd (ADI-26919): 3.5 nM
- Kd (ADI-26924): 5.3 nM
- Kd (ADI-74967): 5.6 nM
- Kd (ADI-26943): 6.2 nM
- Kd (ADI-76359): 3.7 nM
- Kd (ADI-26920 IgG): 4.2 nM
